# Changes are numbered by the printed parent chain. Names and notes keep the numbering of the source.
# B1: wild-type canine IgGB (65) mAb (antibody, part only; not given: variable domains of unnamed mAb, not shown: another chain or arm of the molecule; small tags and cut ends)
# constant: ASTTAPSVFPLAPSCGSTSGSTVALACLVSGYFPEPVTVSWNSGSLTSGVHTFPSVLQSSGLYSLSSMVTVPSSRWPSETFTCNVAHPASKTKVDKPVPKRENGRVPRPPDCPKCPAPEMLGGPSVFIFPPKPKDTLLIARTPEVTCVVVDLDPEDPEVQISWFVDGKQMQTAKTQPREEQFNGTYRVVSVLPIGHQDWLKGKQFTCKVNNKALPSPIERTISKARGQAHQPSVYVLPPSREELSKNTVSLTCLIKDFFPPDIDVEWQSNGQQEPESKYRTTPPQLDEDGSYFLYSKLSVDKSRWQRGDTFICAVMHEALHNHYTQESLSHSPGK
# B2: canine IgGB (65) mAb with mutation Q311M (antibody, part only; not given: Variable domains, not shown: another chain or arm of the molecule)
# constant: B1 constant with Q197M
# B3: canine IgGB (65) mAb with mutation D312L (antibody, part only; not given: Variable domains, not shown: another chain or arm of the molecule)
# constant: B1 constant with D198L
# B4: canine IgGB (65) mAb with mutation D312M (antibody, part only; not given: Variable domains, not shown: another chain or arm of the molecule)
# constant: B1 constant with D198M
# B5: canine IgGB (65) mAb with mutation D312Y (antibody, part only; not given: variable domains of unnamed mAb, not shown: another chain or arm of the molecule)
# constant: B1 constant with D198Y
# B6: canine IgGB (65) mAb with mutation T286P (antibody, part only; not given: Variable domains, not shown: another chain or arm of the molecule)
# constant: B1 constant with T172P
# B7: canine IgGB (65) mAb with mutation D312C (antibody, part only; not given: variable domains of unnamed mAb, not shown: another chain or arm of the molecule)
# constant: B1 constant with D198C
# B8: canine IgGB (65) mAb with mutation Q311D (antibody, part only; not given: Variable domains, not shown: another chain or arm of the molecule)
# constant: B1 constant with Q197D
# B9: canine IgGB (65) mAb with mutation D312R (antibody, part only; not given: variable domains of unnamed mAb, not shown: another chain or arm of the molecule)
# constant: B1 constant with D198R
# B10: canine IgGB (65) mAb with mutation D312H (antibody, part only; not given: Variable domains, not shown: another chain or arm of the molecule)
# constant: B1 constant with D198H
# B11: canine IgGB (65) mAb with mutation A426G (antibody, part only; not given: variable domains of unnamed mAb, not shown: another chain or arm of the molecule)
# constant: B1 constant with A314G
# B12: canine IgGB (65) mAb with mutation D312W (antibody, part only; not given: Variable domains, not shown: another chain or arm of the molecule)
# constant: B1 constant with D198W
# B13: canine IgGB (65) mAb with mutation D312Q (antibody, part only; not given: Variable domains, not shown: another chain or arm of the molecule)
# constant: B1 constant with D198Q
# B14: canine IgGB (65) mAb with mutation T286N (antibody, part only; not given: Variable domains, not shown: another chain or arm of the molecule)
# constant: B1 constant with T172N
# B15: canine IgGB (65) mAb with mutation Q311G (antibody, part only; not given: Variable domains, not shown: another chain or arm of the molecule)
# constant: B1 constant with Q197G
# B16: canine IgGB (65) mAb with mutation D312T (antibody, part only; not given: Variable domains, not shown: another chain or arm of the molecule)
# constant: B1 constant with D198T
# B17: canine IgGB (65) mAb with mutation A426P (antibody, part only; not given: Variable domains, not shown: another chain or arm of the molecule)
# constant: B1 constant with A314P
# B18: canine IgGB (65) mAb with mutation A426C (antibody, part only; not given: Variable domains, not shown: another chain or arm of the molecule)
# constant: B1 constant with A314C
# B19: canine IgGB (65) mAb with mutation D312F (antibody, part only; not given: Variable domains, not shown: another chain or arm of the molecule)
# constant: B1 constant with D198F
# B20: canine IgGB (65) mAb with mutation T286D (antibody, part only; not given: Variable domains, not shown: another chain or arm of the molecule)
# constant: B1 constant with T172D
# B21: canine IgGB (65) mAb with mutation A426S (antibody, part only; not given: Variable domains, not shown: another chain or arm of the molecule)
# constant: B1 constant with A314S
# B22: canine IgGB (65) mAb with mutation A426K (antibody, part only; not given: Variable domains, not shown: another chain or arm of the molecule)
# constant: B1 constant with A314K
# B23: canine IgGB (65) mAb with mutation A426T (antibody, part only; not given: variable domains of unnamed mAb, not shown: another chain or arm of the molecule)
# constant: B1 constant with A314T
# B24: canine IgGB (65) mAb with mutation Q311N (antibody, part only; not given: variable domains of unnamed mAb, not shown: another chain or arm of the molecule)
# constant: B1 constant with Q197N
# B25: canine IgGB (65) mAb with mutation D312K (antibody, part only; not given: variable domains of unnamed mAb, not shown: another chain or arm of the molecule)
# constant: B1 constant with D198K
# B26: canine IgGB (65) mAb with mutation Q311S (antibody, part only; not given: variable domains of unnamed mAb, not shown: another chain or arm of the molecule)
# constant: B1 constant with Q197S
# B27: canine IgGB (65) mAb with mutation A426E (antibody, part only; not given: Variable domains, not shown: another chain or arm of the molecule)
# constant: B1 constant with A314E
# B28: canine IgGB (65) mAb with mutation D312S (antibody, part only; not given: variable domains of unnamed mAb, not shown: another chain or arm of the molecule)
# constant: B1 constant with D198S
# B29: canine IgGB (65) mAb with mutation T286H (antibody, part only; not given: variable domains of unnamed mAb, not shown: another chain or arm of the molecule)
# constant: B1 constant with T172H
# B30: canine IgGB (65) mAb with mutation Q311L (antibody, part only; not given: Variable domains, not shown: another chain or arm of the molecule)
# constant: B1 constant with Q197L
# B31: canine IgGB (65) mAb with mutation T286R (antibody, part only; not given: Variable domains, not shown: another chain or arm of the molecule)
# constant: B1 constant with T172R
# B32: canine IgGB (65) mAb with mutation T286V (antibody, part only; not given: variable domains of unnamed mAb, not shown: another chain or arm of the molecule)
# constant: B1 constant with T172V
# B33: canine IgGB (65) mAb with mutation Q311Y (antibody, part only; not given: variable domains of unnamed mAb, not shown: another chain or arm of the molecule)
# constant: B1 constant with Q197Y
# B34: canine IgGB (65) mAb with mutation A426I (antibody, part only; not given: Variable domains, not shown: another chain or arm of the molecule)
# constant: B1 constant with A314I
# B35: canine IgGB (65) mAb with mutation D312A (antibody, part only; not given: variable domains of unnamed mAb, not shown: another chain or arm of the molecule)
# constant: B1 constant with D198A
# B36: canine IgGB (65) mAb with mutation Q311W (antibody, part only; not given: variable domains of unnamed mAb, not shown: another chain or arm of the molecule)
# constant: B1 constant with Q197W
# B37: canine IgGB (65) mAb with mutation Q311H (antibody, part only; not given: variable domains of unnamed mAb, not shown: another chain or arm of the molecule)
# constant: B1 constant with Q197H
# B38: canine IgGB (65) mAb with mutation Q311K (antibody, part only; not given: Variable domains, not shown: another chain or arm of the molecule)
# constant: B1 constant with Q197K
# B39: canine IgGB (65) mAb with mutation T286S (antibody, part only; not given: Variable domains, not shown: another chain or arm of the molecule)
# constant: B1 constant with T172S
# B40: canine IgGB (65) mAb with mutation Q311P (antibody, part only; not given: variable domains of unnamed mAb, not shown: another chain or arm of the molecule)
# constant: B1 constant with Q197P
# B41: canine IgGB (65) mAb with mutation A426D (antibody, part only; not given: Variable domains, not shown: another chain or arm of the molecule)
# constant: B1 constant with A314D
# B42: canine IgGB (65) mAb with mutation Q311E (antibody, part only; not given: Variable domains, not shown: another chain or arm of the molecule)
# constant: B1 constant with Q197E
# B43: canine IgGB (65) mAb with mutation T286G (antibody, part only; not given: Variable domains, not shown: another chain or arm of the molecule)
# constant: B1 constant with T172G
# B44: canine IgGB (65) mAb with mutation Q311R (antibody, part only; not given: Variable domains, not shown: another chain or arm of the molecule)
# constant: B1 constant with Q197R
# B45: canine IgGB (65) mAb with mutation T286C (antibody, part only; not given: variable domains of unnamed mAb, not shown: another chain or arm of the molecule)
# constant: B1 constant with T172C
# B46: canine IgGB (65) mAb with mutation Q311C (antibody, part only; not given: Variable domains, not shown: another chain or arm of the molecule)
# constant: B1 constant with Q197C
# B47: canine IgGB (65) mAb with mutation Q311I (antibody, part only; not given: variable domains of unnamed mAb, not shown: another chain or arm of the molecule)
# constant: B1 constant with Q197I
# B48: canine IgGB (65) mAb with mutation D312G (antibody, part only; not given: Variable domains, not shown: another chain or arm of the molecule)
# constant: B1 constant with D198G
# B49: canine IgGB (65) mAb with mutation D312I (antibody, part only; not given: Variable domains, not shown: another chain or arm of the molecule)
# constant: B1 constant with D198I
# B50: canine IgGB (65) mAb with mutation A426R (antibody, part only; not given: variable domains of unnamed mAb, not shown: another chain or arm of the molecule)
# constant: B1 constant with A314R
# B51: canine IgGB (65) mAb with mutation T286Q (antibody, part only; not given: Variable domains, not shown: another chain or arm of the molecule)
# constant: B1 constant with T172Q
# B52: canine IgGB (65) mAb with mutation D312V (antibody, part only; not given: variable domains of unnamed mAb, not shown: another chain or arm of the molecule)
# constant: B1 constant with D198V
# B53: canine IgGB (65) mAb with mutation A426M (antibody, part only; not given: Variable domains, not shown: another chain or arm of the molecule)
# constant: B1 constant with A314M
# B54: canine IgGB (65) mAb with mutation T286E (antibody, part only; not given: Variable domains, not shown: another chain or arm of the molecule)
# constant: B1 constant with T172E
# B55: canine IgGB (65) mAb with mutation D312N (antibody, part only; not given: Variable domains, not shown: another chain or arm of the molecule)
# constant: B1 constant with D198N
# B56: canine IgGB (65) mAb with mutation D312E (antibody, part only; not given: Variable domains, not shown: another chain or arm of the molecule)
# constant: B1 constant with D198E
# B57: canine IgGB (65) mAb with mutation Q311T (antibody, part only; not given: Variable domains, not shown: another chain or arm of the molecule)
# constant: B1 constant with Q197T
# B58: canine IgGB (65) mAb with mutation A426Q (antibody, part only; not given: variable domains of unnamed mAb, not shown: another chain or arm of the molecule)
# constant: B1 constant with A314Q
# B59: canine IgGB (65) mAb with mutation Q311F (antibody, part only; not given: Variable domains, not shown: another chain or arm of the molecule)
# constant: B1 constant with Q197F
# B60: canine IgGB (65) mAb with mutation A426N (antibody, part only; not given: Variable domains, not shown: another chain or arm of the molecule)
# constant: B1 constant with A314N
# B61: canine IgGB (65) mAb with mutation A426L (antibody, part only; not given: variable domains of unnamed mAb, not shown: another chain or arm of the molecule)
# constant: B1 constant with A314L
# Target: canine FcRn complex (FcRn-alpha subunit and beta-microglobulin), His-tagged, biotin labeled (canine)
# Test: SPR (Biacore), biotin-FcRn captured on SA surface, IgG flowed over, pH 6, 15 C
row,Kd [nM],Binder
1,30.7,B1
2,13.1,B2
3,12.1,B3
4,16.2,B4
5,25.1,B5
6,6.73,B6
7,19,B7
8,13.3,B8
9,23.1,B9
10,9.72,B10
11,7.36,B11
12,14.4,B12
13,9.97,B13
14,6.32,B14
15,8.42,B15
16,10.6,B16
17,23.7,B17
18,8.86,B18
19,21.9,B19
20,6.83,B20
21,11.9,B21

row,Kd [nM],Binder
1,3.81,B22
2,8.72,B23
3,10.1,B24
4,24,B25
5,8.7,B26
6,4.77,B27
7,14.8,B28
8,5.07,B29
9,19.1,B30
10,4.73,B31
11,8.36,B32
12,2.61,B33
13,8.54,B34
14,10.3,B35
15,2.49,B36
16,6.66,B37
17,6.23,B38
18,6.68,B39
19,21.2,B40
20,14.9,B41
21,9.39,B42

row,Kd [nM],Binder
1,6.48,B43
2,15.2,B44
3,8.19,B45
4,10.3,B46
5,7.94,B47
6,26.8,B48
7,21.5,B49
8,4.23,B50
9,8.58,B51
10,14.1,B52
11,8.84,B53
12,8.66,B54
13,17.1,B55
14,14.1,B56
15,10.7,B57
16,8.41,B58
17,33,B59
18,5.33,B60
19,5.17,B61

# — patent US20260139055A1
